Results reported in publication PMC11931385, “Structural and functional analysis of cancer-associated missense variants in the retinoblastoma protein pocket domain” (The Journal of Biological Chemistry, 2025).
Positions count from the first letter of the chain named. Numbers in names are those of the source. No end group written: not given here. TMR = tetramethyl rhodamine dye

T1: Rb^P T620M (human, UniProt P06400 380-788, T620M)
T1 construct: also called variant 40
T1 sequence (looked up): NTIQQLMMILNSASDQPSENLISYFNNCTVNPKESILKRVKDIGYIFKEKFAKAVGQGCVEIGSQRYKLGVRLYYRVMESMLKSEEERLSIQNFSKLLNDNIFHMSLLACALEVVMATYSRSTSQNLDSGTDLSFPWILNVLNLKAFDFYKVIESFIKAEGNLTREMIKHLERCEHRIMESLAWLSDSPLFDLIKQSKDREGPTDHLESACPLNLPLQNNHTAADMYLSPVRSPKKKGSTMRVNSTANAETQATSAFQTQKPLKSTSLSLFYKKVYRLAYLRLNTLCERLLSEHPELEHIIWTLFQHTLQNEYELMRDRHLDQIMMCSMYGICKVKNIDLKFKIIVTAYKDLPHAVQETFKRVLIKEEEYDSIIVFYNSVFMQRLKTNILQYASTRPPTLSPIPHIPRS

T2: Rb^P R621H (human, UniProt P06400 380-788, R621H)
T2 construct: also called variant 42
T2 sequence (looked up): T1 sequence (looked up) with M241T, R242H

T3: Rb^P K548N (human, UniProt P06400 380-788, K548N)
T3 construct: also called variant 26
T3 sequence (looked up): T1 sequence (looked up) with K169N, M241T

T4: Rb^P H686Y (human, UniProt P06400 380-788, H686Y)
T4 construct: also called variant 58
T4 sequence (looked up): T1 sequence (looked up) with M241T, H307Y

T5: Rb^P K530I (human, UniProt P06400 380-788, K530I)
T5 construct: also called variant 21
T5 sequence (looked up): T1 sequence (looked up) with K151I, M241T

B1: TMR-E2F1^TD, peptide of the E2F1 transactivation domain (peptide)
peptide: {TMR}-GEGIRDLFDCDFGDLTPLD
notes: also called E2F^TD; source: synthetic peptide, bought: GenScript
B2: TMR-E7^LxCxE, LxCxE peptide of the E7 oncoprotein from HPV (peptide)
peptide: DLYCYEQLN
modifications: also: TMR label, position not given here
notes: source: synthetic peptide, bought: GenScript

How the values were obtained:
Assay in all cases: fluorescence polarisation; 37 °C, after the 25 °C reading ramped over 7 min to 37 °C and 2 min incubation; unlabeled Rb^P against 1.5 nM TMR-E2F1^TD or 7.5 nM TMR-E7^LxCxE; 25 mM Tris pH 8.0, 200 mM NaCl, 1 mM DTT, 0.1% Tween-20; apparent Kd
Settings in all cases: both partners purified
[1] = biological target: T1, Rb^P T620M
[2] = biological target: T2, Rb^P R621H
[3] = biological target: T3, Rb^P K548N
[4] = biological target: T4, Rb^P H686Y
[5] = biological target: T5, Rb^P K530I

| Binder | Kd [1] [nM] | Kd [2] [nM] | Kd [3] [nM] | Kd [4] [nM] | Kd [5] [nM] |
| --- | --- | --- | --- | --- | --- |
| B1 | 59 | 48 | 178 | 35 | 1680 |
| B2 | 15 | 18 | 15 | 14 | 20 |
